Test results published in US20030199671A1, “Binding molecules for Fc-region polypeptides” (priority 2001, published 2003).
Starred links: 1 amine or outer side, 2 acyl side, 3 side chain; linkers in the order of their positions; H or OH if unused. Primed or numbered codes have the meaning given here. code X″ = C-terminal linker unit, -NH-(CH2CH2O)2-CH2CH2- (X-NH2 = -NH-(CH2CH2O)2-CH2CH2-NH2), C(COCCOCC[*:2])N[*:1]; Su = not defined here

B1: DX877 (peptide)
peptide: Ac-GDDHMCVYTTWGELIWCDNHEPGPEG-{NH‑(CH2CH2O)2‑CH2CH2‑NH2}
modifications: not fully specified (bridges); printed as Ac-GDDHMCVYTTWGELIWCDNHEPGPEG-X-NH2; cysteine pairing not given here
B2: DX878 (peptide)
peptide: Ac-GDDHMCVYTTWGELIWCDNHEPG-{code X″-Su-code X″-NH2}
modifications: not fully specified (bridges); printed as Ac-GDDHMCVYTTWGELIWCDNHEPG-X-Su-X-NH2; cysteine pairing not given here; reading uncertain

What was measured:
[1] = target: human IgG (unfractionated, polyclonal); assay: filterplate; 25 mg human IgG applied per ml resin
[2] = target: human IgG (unfractionated, polyclonal); assay: total dynamic capacity

| Binder | Static Cap. [1] [mg/mL] | Dynamic Cap. [2] [mg/mL] |
| --- | --- | --- |
| B1 | 20 | 8 |
| B2 | 23 | 9 |
